Consider 13 sequences from the supplement of paper PMC9170038.

The series relates to MS2 coat protein. The series is described as follows: apparent KD of MS2 coat protein; designed switch direction (-1 OFF switch, 1 ON switch): -1; higher = weaker reporter binding. Put shortly:
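An oligonucleotide input, 200 uM small-molecule ligand, or no input was present during titration of SNAP-549-labelled MS2 coat protein, which was doubled from 0.7 or 1.5 nM to 3 µM. Designed RNA switches had been transcribed on Illumina chips by stalled E. coli RNA polymerase. Apparent KD per design is the median over clusters of curves fitted to normalised cluster fluorescence.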

Turning to “UGAUCUAGCGGAGGAUAUACAUGAGGAUCACCCAUGUAUAGGCUAUCUGGUGACAGGUGGAACAUGUAGAAGGCCGCUAGAUCU [JL ENG2 3.80] (Eterna round: R96, puzzle: Exclusion NG 2)”, the “apparent KD of MS2 coat protein” value by setting is: (input ligand: FMN 200 uM) 78.1 nM; (input ligand: microRNA oligo, concentration not stated) 12.7 nM; (input ligand: none) 17.9 nM.

For “UGAUCUUGAGUCAGGAUAUGCUGGUAUUUUUACCAGCAGAAGGGACAUGAGGAUCACCCAUGUUCUCACUUUUU [Magic-13] (puzzle: Brourd's mod of Exclusion 4)”, the “apparent KD of MS2 coat protein” value (Eterna round: R95, input ligand: microRNA oligo, concentration not stated) stood at 10.5 nM.

Take “UGCAGACGAGGAUAUAAAUGAUAUAACAUGAGGAUCACCCAUGUACGAUCGAAUGAUCGUUUAGAAGGCGUCUGCA [E5/11-A2] (Eterna round: R97, puzzle: Exclusion 5)”: the “apparent KD of MS2 coat protein” value reads like this: (input ligand: FMN 200 uM) 18.5 nM; (input ligand: none) 17.4 nM.

For “UGCAGACGAGGAUAUAGAUUUGAUAACAUGAGGAUCACCCAUGUGAUCGAUAGAUCAGAUUUAGAAGGCGUCUGCA [E5/8-A2] (Eterna round: R97, puzzle: Exclusion 5)”, the “apparent KD of MS2 coat protein” value runs as follows: (input ligand: FMN 200 uM) 628 nM; (input ligand: none) 529 nM.

Consider “UGCAGACGAGGAUAUGAUUAAUAAUACAUGAGGAUCACCCAUGUAAUACUGAUCUAUGGAUCAGAAGGUGUCUGCA [E5/6-B2] (Eterna round: R97, puzzle: Exclusion 5)”, for which the “apparent KD of MS2 coat protein” value (input ligand: FMN 200 uM) is 17.7 nM and the “apparent KD of MS2 coat protein” value (input ligand: none) was 28.3 nM.

In the case of “UGCCAGCGAGGAUAUGCUAGAGGUGUUCCGUGCUCUAAGGGACAUGAGGAUCACCCAUGUAGAAGGCGCACGUC [Eternabot (L1) Solution 20] (Eterna round: R97, puzzle: Exclusion 2)”, the “apparent KD of MS2 coat protein” value by setting is: (input ligand: FMN 200 uM) 187 nM; (input ligand: none) 194 nM.

For the sequence “UGCCGUAGAGGAUAUACGUAGAAAUAGAUUCAUGUAAAACUACAUGAGGAUCACCCAUGUAGAAGGCUAUGGCU [JL-ex2-4.32 Eli mod] (Eterna round: R97, puzzle: Exclusion 2)”, the “apparent KD of MS2 coat protein” value reads like this: (input ligand: FMN 200 uM) 243 nM; (input ligand: none) 25.3 nM.

With “UGCGGGCUUUUGAGACCUCACAUGAGGAUCACCCAUGUGCUUGUCUUGUAAGUGGGUAGGUCGUUGGCUGACUCACA [Sensor-V1 #100] (Eterna round: R97, puzzle: Sensor, turn-off variant 1)”, the “apparent KD of MS2 coat protein” value by setting is: (input ligand: FMN 200 uM) 18.8 nM; (input ligand: none) 17.5 nM.

For “UGCGGUAGAGGAUAUACGUAGAAAUAGAUUCAUGUAAAACUACAUGAGGAUCACCCAUGUAGAAGGCUAUCGCU [JL-ex2-4.27 Eli mod] (Eterna round: R97, puzzle: Exclusion 2)”, the “apparent KD of MS2 coat protein” value by setting is: (input ligand: FMN 200 uM) 265 nM; (input ligand: none) 25.8 nM.

Consider “UGCGUACAUGAGGAUCACCCAUGUGAGGAUAUUUGGCAUCGCGAGUGCCCAAGGAGAUAGAGAAGGCAUAUGGA [Eternabot (L1) Solution 50] (Eterna round: R97, puzzle: Exclusion 1)”, for which the “apparent KD of MS2 coat protein” value was determined as 34.3 nM (input ligand: FMN 200 uM) and 37.2 nM (input ligand: none).

On to “UGCGUGUGAGGAUAUGCGCGUGGCGAUCUUAAGUUACGCAAGCAGAAGGCACAUGAGGAUCACCCAUGUGGCCA [Eternabot (L1) Solution 20] (Eterna round: R97, puzzle: Exclusion 4)”, for which the “apparent KD of MS2 coat protein” value runs as follows: (input ligand: FMN 200 uM) 98.5 nM; (input ligand: none) 20.3 nM.

On to “UGGAGGUGAGGAUAUACAUGAGGAUCACCCAUGUGGUGAAGUAGAGAGUAGUGGAGUGGUAGAAGGCACGAGUA [Version #1] (Eterna round: R97, puzzle: Exclusion 3)”, for which the “apparent KD of MS2 coat protein” value by setting is: (input ligand: FMN 200 uM) 702 nM; (input ligand: none) 352 nM.

For “UGGCUUAGAGGAUAUACAUUGAAUAAGAUUCAUGUAAAACUACAUGAGGAUCACCCAUGUAGAAGGCUAGGCCU [Mat - Exclusion 2 - JL Mod - D73] (Eterna round: R97, puzzle: Exclusion 2)”, the “apparent KD of MS2 coat protein” value by setting is: (input ligand: FMN 200 uM) 32.7 nM; (input ligand: none) 17.9 nM.
